Reference: patent US20220363763A1 (ABL BIO, published 2022)

T1: recombinant his-tag human LAG3-ECD protein (human, UniProt P18627 23-450)
T1 construct: extracellular domain; not shown: his tag
T1 sequence (looked up): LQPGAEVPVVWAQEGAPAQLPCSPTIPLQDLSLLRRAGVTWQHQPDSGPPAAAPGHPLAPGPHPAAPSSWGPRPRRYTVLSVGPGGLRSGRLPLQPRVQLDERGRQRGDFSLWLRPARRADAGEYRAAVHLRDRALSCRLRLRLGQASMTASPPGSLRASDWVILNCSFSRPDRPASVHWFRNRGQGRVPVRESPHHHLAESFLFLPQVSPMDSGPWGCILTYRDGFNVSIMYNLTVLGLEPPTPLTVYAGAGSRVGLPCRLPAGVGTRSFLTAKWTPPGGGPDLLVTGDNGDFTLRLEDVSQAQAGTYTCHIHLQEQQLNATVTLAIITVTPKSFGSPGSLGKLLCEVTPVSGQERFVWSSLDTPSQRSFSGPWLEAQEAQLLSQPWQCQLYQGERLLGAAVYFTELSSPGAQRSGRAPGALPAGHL


Target: T1, recombinant his-tag human LAG3-ECD …
Assay: SPR Biacore T200, capture method as Example 2.7

Kd [nM] | koff [s⁻¹] | kon [M⁻¹ s⁻¹] | Binder
8.1 | 0.012 | 1.4e+06 | 147H 3421 (antibody, V domains shown) VH: EVQLVQSGAEVKKPGASVKVSCKASGYTFTNYWLGWIKQAPGQGLEWIGDIYPGGDYINYNEKFKGKATLTADTSISTAYMELSRLRSDDTAVYYCARPNLPKDHWGQGTTVTVSS VL: DIVMTQSPLSLPVTPGEPASISCRSSKSLLHSNAITYLYWYLQKPGQSPQLLIYQVSNLASGVPDRFSGSGSGTDFTLKISRVEAEDVGVYYCAQNLELPWTFGGGTKVEIK
0.59 | 0.0029 | 4.9e+06 | 147H 3792 (antibody, V domains shown) VH: EVQLVQSGAEVKKPGASVKVSCKASGYTFTNYWLGWIKQAPGQGLEWIGDIYPGGDYIVYNEKFKGKATLTADTSISTAYMELSRLRSDDTAVYYCARPNLPGDYWGQGTTVTVSS VL: DIVMTQSPLSLPVTPGEPASISCRSSKSLLHSNAITYLYWYLQKPGQSPQLLIYQVSNLASGVPDRFSGSGSGTDFTLKISRVEAEDVGVYYCAQYLELPWTFGGGTKVEIK
8.8 | 0.0063 | 720000 | 147H 3669 (antibody, V domains shown) VH: EVQLVQSGAEVKKPGASVKVSCKASGYLFTNYWLGWIKQAPGQGLEWIGDIYPGGDYIVYNEKFKGKATLTADTSISTAYMELSRLRSDDTAVYYCARPNLPGDYWGQGTTVTVSS VL: DIVMTQSPLSLPVTPGEPASISCRSSKSLLHSNAITYLYWYLQKPGQSPQLLIYQVSNLASGVPDRFSGSGSGTDFTLKISRVEAEDVGVYYCAQNLELPWTFGGGTKVEIK
0.92 | 0.0068 | 7.4e+06 | 147H 3549 (antibody, V domains shown) VH: EVQLVQSGAEVKKPGASVKVSCKASGYTFTNYWLGWIKQAPGQGLEWIGDIYPGGDYINYNEKFKGKATLTADTSISTAYMELSRLRSDDTAVYYCARPNLPKDHWGQGTTVTVSS VL: DIVMTQSPLSLPVTPGEPASISCRSSKSLLHSNAITYLYWYLQKPGQSPQLLIYQVSNLASGVPDRFSGSGSGTDFTLKISRVEAEDVGVYYCAQYLEEPWTFGGGTKVEIK
0.75 | 0.0032 | 4.3e+06 | 147H 3808 (antibody, V domains shown) VH: EVQLVQSGAEVKKPGASVKVSCKASGYTFTNYWLGWIKQAPGQGLEWIGDIYPGGDYIVYNEKFKGKATLTADTSISTAYMELSRLRSDDTAVYYCARPNLPKDHWGQGTTVTVSS VL: DIVMTQSPLSLPVTPGEPASISCRSSKSLLHSNAITYLYWYLQKPGQSPQLLIYQVSNLASGVPDRFSGSGSGTDFTLKISRVEAEDVGVYYCGQYLELPWTFGGGTKVEIK
1.4 | 0.0042 | 2.9e+06 | 147H 3508 (antibody, V domains shown) VH: EVQLVQSGAEVKKPGASVKVSCKASGYTFTNYWLGWIKQAPGQGLEWIGDIYPGGDYINYNEKFKGKATLTADTSISTAYMELSRLRSDDTAVYYCARPNLPKDHWGQGTTVTVSS VL: DIVMTQSPLSLPVTPGEPASISCRSSKSLLHSNAITYLYWYLQKPGQSPQLLIYQVSNLASGVPDRFSGSGSGTDFTLKISRVEAEDVGVYYCGQNLELPWTFGGGTKVEIK
0.72 | 0.0027 | 3.7e+06 | 147H 3794 (antibody, V domains shown) VH: EVQLVQSGAEVKKPGASVKVSCKASGYLFTNYWLGWIKQAPGQGLEWIGDIYPGGDYIVYNEKFKGKATLTADTSISTAYMELSRLRSDDTAVYYCARPNLPGDYWGQGTTVTVSS VL: DIVMTQSPLSLPVTPGEPASISCRSSKSLLHSNAITYLYWYLQKPGQSPQLLIYQVSNLASGVPDRFSGSGSGTDFTLKISRVEAEDVGVYYCAQYLELPWTFGGGTKVEIK
6.8 | 0.0054 | 790000 | 147H 3663 (antibody, V domains shown) VH: EVQLVQSGAEVKKPGASVKVSCKASGYTFENYWLGWIKQAPGQGLEWIGDIYPGGDYIVYNEKFKGKATLTADTSISTAYMELSRLRSDDTAVYYCARPNLPGDYWGQGTTVTVSS VL: DIVMTQSPLSLPVTPGEPASISCRSSKSLLHSNAITYLYWYLQKPGQSPQLLIYQVSNLARGVPDRFSGSGSGTDFTLKISRVEAEDVGVYYCAQNLELPWTFGGGTKVEIK
1.3 | 0.0023 | 1.8e+06 | 147H 3793 (antibody, V domains shown) VH: EVQLVQSGAEVKKPGASVKVSCKASGYLFTNYWLGWIKQAPGQGLEWIGDIYPGGDYIVYNEKFKGKATLTADTSISTAYMELSRLRSDDTAVYYCARPNLPGDYWGQGTTVTVSS VL: DIVMTQSPLSLPVTPGEPASISCRSSKSLLHSNAITYLYWYLQKPGQSPQLLIYQVSNLASGVPDRFSGSGSGTDFTLKISRVEAEDVGVYYCGQNLELPWTFGGGTKVEIK
0.59 | 0.0029 | 4.9e+06 | 147H 3811 (antibody, V domains shown) VH: EVQLVQSGAEVKKPGASVKVSCKASGYLFTNYWLGWIKQAPGQGLEWIGDIYPGGDYIVYNEKFKGKATLTADTSISTAYMELSRLRSDDTAVYYCARPNLPKDHWGQGTTVTVSS VL: DIVMTQSPLSLPVTPGEPASISCRSSKSLLHSNAITYLYWYLQKPGQSPQLLIYQVSNLATGVPDRFSGSGSGTDFTLKISRVEAEDVGVYYCGQYLELPWTFGGGTKVEIK
1.2 | 0.0025 | 2.1e+06 | 147H 3791 (antibody, V domains shown) VH: EVQLVQSGAEVKKPGASVKVSCKASGYTFTNYWLGWIKQAPGQGLEWIGDIYPGGDYIVYNEKFKGKATLTADTSISTAYMELSRLRSDDTAVYYCARPNLPGDYWGQGTTVTVSS VL: DIVMTQSPLSLPVTPGEPASISCRSSKSLLHSNAITYLYWYLQKPGQSPQLLIYQVSNLASGVPDRFSGSGSGTDFTLKISRVEAEDVGVYYCGQNLELPWTFGGGTKVEIK
0.98 | 0.0085 | 8.7e+06 | 147H 3550 (antibody, V domains shown) VH: EVQLVQSGAEVKKPGASVKVSCKASGYTFTNYWLGWIKQAPGQGLEWIGDIYPGGDYINYNEKFKGKATLTADTSISTAYMELSRLRSDDTAVYYCARPNLPKDHWGQGTTVTVSS VL: DIVMTQSPLSLPVTPGEPASISCRSSKSLLHSNAITYLYWYLQKPGQSPQLLIYQVSNLASGVPDRFSGSGSGTDFTLKISRVEAEDVGVYYCAQYLELPWTFGGGTKVEIK
5.9 | 0.0045 | 770000 | 147H 3790 (antibody, V domains shown) VH: EVQLVQSGAEVKKPGASVKVSCKASGYTFTNYWLGWIKQAPGQGLEWIGDIYPGGDYINYNEKFKGKATLTADTSISTAYMELSRLRSDDTAVYYCARPNLPKDHWGQGTTVTVSS VL: DIVMTQSPLSLPVTPGEPASISCRSSKSLLHSNAITYLYWYLQKPGQSPQLLIYQVSNLATGVPDRFSGSGSGTDFTLKISRVEAEDVGVYYCAQNLELPWTFGGGTKVEIK
0.47 | 0.002 | 4.3e+06 | 147H 3809 (antibody, V domains shown) VH: EVQLVQSGAEVKKPGASVKVSCKASGYLFTNYWLGWIKQAPGQGLEWIGDIYPGGDYIVYNEKFKGKATLTADTSISTAYMELSRLRSDDTAVYYCARPNLPKDHWGQGTTVTVSS VL: DIVMTQSPLSLPVTPGEPASISCRSSKSLLHSNAITYLYWYLQKPGQSPQLLIYQVSNLASGVPDRFSGSGSGTDFTLKISRVEAEDVGVYYCAQYLELPWTFGGGTKVEIK
